Consider 2 substances from PMC8927971.

This data set relates to CIZ1 N571ΔPLD2 (Mus musculus). Nature of the data set: EMSA. The following applies: 10 mM Tris-HCl pH 7.5, 30 mM NaCl, 2.5 mM MgCl2, 0.2 mM DTT, 0.1% IGEPAL CA-630, 0.1 mg/ml yeast tRNA, 0.4 U RNaseOUT, 1% glycerol; 30 C 20 min; 0.7% agarose ….

The substance Xist repeat A returned a K half of 100 nM.

As for Xist repeat E proximal, the K half was found to be 100 nM.
